Literature values, collected in patent publication US6537965B1, “Amino-terminal modified parathyroid hormone (PTH) analogs” (The General Hospital Corporation, priority 1998, dated 2003).

What was measured:
human PTHRs [1] = molecular target: T1, human PTHRs (Homo sapiens, UniProt Q03431); design: host or cells: LLC-PK1, COS-7 or HEK 293 cells; settings: human PTHRs in LLC-PK1, COS-7 or HEK 293 cells; cited from earlier work
T1 sequence (Q03431 27-593): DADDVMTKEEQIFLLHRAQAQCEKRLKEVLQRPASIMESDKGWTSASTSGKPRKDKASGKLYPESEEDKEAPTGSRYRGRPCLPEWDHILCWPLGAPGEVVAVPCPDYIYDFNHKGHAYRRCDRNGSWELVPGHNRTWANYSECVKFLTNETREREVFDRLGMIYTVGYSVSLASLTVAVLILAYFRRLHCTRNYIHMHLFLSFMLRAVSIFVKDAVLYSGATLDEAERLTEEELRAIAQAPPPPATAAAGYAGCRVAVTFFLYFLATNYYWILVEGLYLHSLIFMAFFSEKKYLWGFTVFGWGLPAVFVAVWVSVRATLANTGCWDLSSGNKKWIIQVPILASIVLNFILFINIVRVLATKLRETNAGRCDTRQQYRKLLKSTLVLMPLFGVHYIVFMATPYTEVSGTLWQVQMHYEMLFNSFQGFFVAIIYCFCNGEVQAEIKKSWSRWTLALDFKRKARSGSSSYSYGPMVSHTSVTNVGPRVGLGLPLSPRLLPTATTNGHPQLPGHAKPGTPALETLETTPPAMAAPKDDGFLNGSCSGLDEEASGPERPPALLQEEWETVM

human PTHRs [2] = molecular target: T1, human PTHRs; design: host or cells: LLC-PK1, COS-7 or HEK 293 cells; settings: human PTHRs in LLC-PK1, COS-7 or HEK 293 cells; cited from earlier work; remark: listed apart in the source

Substance: hPTH-(1-31): C-truncated human PTH peptide, residues 1-31
- potency in activating AC compared with hPTH-(1-34) (human PTHRs [1]): as potent as hPTH-(1-34)
- potency in activating PLC compared with hPTH-(1-34) (human PTHRs [2]): as potent as hPTH-(1-34)
